PMC4387718, “In vivo biochemical analyses reveal distinct roles of β-importins and eEF1A in tRNA subcellular traffic” (Genes & Development, 2015)

T1: MORF (His6-HA epitope-ZZ protein A)-tagged Msn5 (S. cerevisiae, UniProt P52918 1-1224)
T1 construct: Msn5, beta-importin family member (yeast exportin-5 homolog), S. cerevisiae; Tagged protein is functional; also called Msn5-M; exportin-5 homolog; source: S. cerevisiae, endogenous promoter on a yeast episomal (YEp) vector, in cell extract
T1 sequence (looked up): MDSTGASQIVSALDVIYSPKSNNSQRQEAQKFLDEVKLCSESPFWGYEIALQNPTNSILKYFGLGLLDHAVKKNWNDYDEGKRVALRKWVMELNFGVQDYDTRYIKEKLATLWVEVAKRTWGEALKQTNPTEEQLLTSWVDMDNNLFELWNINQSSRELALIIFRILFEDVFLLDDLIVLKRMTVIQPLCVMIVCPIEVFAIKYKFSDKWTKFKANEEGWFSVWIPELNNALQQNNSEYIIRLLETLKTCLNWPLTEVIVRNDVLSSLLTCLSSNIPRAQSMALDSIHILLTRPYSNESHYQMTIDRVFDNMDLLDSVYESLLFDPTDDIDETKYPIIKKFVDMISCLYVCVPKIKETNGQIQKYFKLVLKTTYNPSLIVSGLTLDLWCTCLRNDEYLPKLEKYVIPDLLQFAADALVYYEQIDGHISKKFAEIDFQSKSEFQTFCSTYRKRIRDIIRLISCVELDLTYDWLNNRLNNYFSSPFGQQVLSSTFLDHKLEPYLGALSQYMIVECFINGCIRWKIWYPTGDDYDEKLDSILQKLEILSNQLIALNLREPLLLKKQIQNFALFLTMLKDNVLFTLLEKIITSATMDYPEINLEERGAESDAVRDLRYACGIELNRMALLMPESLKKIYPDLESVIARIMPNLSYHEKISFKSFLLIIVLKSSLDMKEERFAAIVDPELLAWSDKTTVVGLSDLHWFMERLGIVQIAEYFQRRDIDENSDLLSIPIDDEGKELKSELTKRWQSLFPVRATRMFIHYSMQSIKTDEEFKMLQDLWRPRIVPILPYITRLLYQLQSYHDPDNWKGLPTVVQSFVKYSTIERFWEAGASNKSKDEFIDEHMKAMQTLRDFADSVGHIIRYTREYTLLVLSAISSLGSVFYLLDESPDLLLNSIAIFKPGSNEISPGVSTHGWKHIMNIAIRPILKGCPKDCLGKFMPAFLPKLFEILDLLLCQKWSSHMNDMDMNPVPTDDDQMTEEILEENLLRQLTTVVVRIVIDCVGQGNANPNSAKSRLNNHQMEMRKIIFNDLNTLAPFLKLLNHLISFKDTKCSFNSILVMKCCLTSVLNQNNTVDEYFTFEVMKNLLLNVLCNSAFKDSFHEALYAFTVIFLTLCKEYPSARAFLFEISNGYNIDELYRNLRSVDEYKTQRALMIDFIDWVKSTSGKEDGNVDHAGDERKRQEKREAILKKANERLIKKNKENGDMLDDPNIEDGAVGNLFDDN

B1: untagged Tef2 (natural protein, S. cerevisiae (endogenous in yeast), UniProt P02994 1-458, looked up)
chain: MGKEKSHINVVVIGHVDSGKSTTTGHLIYKCGGIDKRTIEKFEKEAAELGKGSFKYAWVLDKLKAERERGITIDIALWKFETPKYQVTVIDAPGHRDFIKNMITGTSQADCAILIIAGGVGEFEAGISKDGQTREHALLAFTLGVRQLIVAVNKMDSVKWDESRFQEIVKETSNFIKKVGYNPKTVPFVPISGWNGDNMIEATTNAPWYKGWEKETKAGVVKGKTLLEAIDAIEQPSRPTDKPLRLPLQDVYKIGGIGTVPVGRVETGVIKPGMVVTFAPAGVTTEVKSVEMHHEQLEQGVPGDNVGFNVKNVSVKEIRRGNVCGDAKNDPPKGCASFNATVIVLNHPGQISAGYSPVLDCHTAHIACRFDELLEKNDRRSGKKLEDHPKFLKSGDAALVKFVPSKPMCVEAFSEYPPLGRFAVRDMRQTVAVGVIKSVDKTEKAAKVTKAAQKAAKK
notes: Tef2, yeast translation elongation factor 1 alpha (eEF1A), product of TEF2; Detected with anti-eEF1A; comigrates with Tef1-Myc; also called Tef1/2; eEF1A; source: endogenous, S. cerevisiae cell extract
B2: endogenously 3Myc-tagged Tef1 (natural protein, S. cerevisiae, UniProt P02994 1-458, looked up)
chain: B1 chain
notes: Tef1, yeast translation elongation factor 1 alpha (eEF1A), product of TEF1; Detected with anti-eEF1A and anti-Myc; comigrates with untagged Tef2, so the anti-eEF1A signal called Tef1/2 is of both; also called Tef1-Myc; Tef1/2; source: endogenously tagged, S. cerevisiae cell extract

Tests used:
[1] = target: T1, MORF (His6-HA epitope-ZZ protein …); assay: co-IP; cells with locked RanGTP, formaldehyde cross-linked; extract treated with RNase A prior to purification of the beta-importin on IgG beads; Western blot with anti-eEF1A; conditions: partners not purified
[2] = target: T1, MORF (His6-HA epitope-ZZ protein …); assay: co-IP; cells with RanGTP-locked mutant, without cross-linking; complex immunoprecipitated on beads first and then treated with RNase A (condition R*); Western blot with anti-eEF1A; conditions: partners not purified

| Binder | percent of copurified Tef1/2 relative to mock treatment [1] | percent of copurified Tef1/2 relative to mock treatment [2] |
| --- | --- | --- |
| B1 | ~90% | ~40% |
| B2 | ~90% | ~40% |
